Substitutions are numbered along the chain they refer to.
B1: 1092E4 H3-specific human monoclonal antibody (antibody, V domains shown)
VH: QVQLVQSGAEVKKPGASVKVSCKASGYSFTRYGISWVRQAPGQGLEWMGWISAYTGNTDYAQKFQGRITMTTDTSTSTVYMELRSLRSDDTAVYYCARDHPQGVVILGSYYYGMDVWGQGNTVTVSS
VL: EIVLTQSPGTLSLSPGERATLSCRASQSVTSRYLAWYQQKLGQAPRLLIYGASSRATGIPDRFSGSGSGTDFTLTISSLEPEDFAVYYCQQSGSPRTFGQGTKVEIK
notes: also called H3 hMAb 1092E4; source: HEK293T, transfected; IgG captured and eluted from Magne protein A beads
B2: 1092C4 H3-specific human monoclonal antibody (antibody, V domains shown)
VH: B1 VH with Q1E, V79A, H100L
VL: B1 VL with F84L
notes: also called H3 hMAb 1092C4; source: HEK293T, transfected; IgG captured and eluted from Magne protein A beads

What was measured:
[1] = target: T1, hemagglutinin (HA) of A/Switzerland/9715283/2013 H3N2 (Influenza A virus …, strain); test: cell-based or functional assay
[2] = target: T2, H3 hemagglutinin protein of A/Brisbane/10/2007 H3N2 (Influenza A virus A/Brisbane/10/2007 …, UniProt A8W8K8, strain); test: cell-based or functional assay
[3] = target: recombinant hemagglutinin (HA) of A/Netherlands/219/03 H7N7 (Influenza A virus …, UniProt Q6VMK1, strain); test: ELISA; settings: both partners purified
[4] = target: T3, hemagglutinin (HA) of A/Hong Kong/1/1968 H3N2 (Influenza A virus A/Hong Kong/1/1968 …, UniProt Q91MA7); test: immunostaining of cells or tissue; settings: one partner purified
T3 construct: source: MDCK cells infected with the virus (BEI Resources)

[5] = target: T1, hemagglutinin (HA) of …; test: cell-based or functional assay; remark: listed apart in the source
[6] = target: T2, H3 hemagglutinin protein of …; test: cell-based or functional assay; remark: listed apart in the source

| Binder | hemagglutination inhibition (HAI) IC50, virus A/Switzerland/9715293/2013 H3N2 [1] | hemagglutination inhibition (HAI) IC50, virus A/Brisbane/10/2007 H3N2 [2] | binding result [3] | binding result [4] | microneutralization IC50, virus A/Switzerland/9715293/2013 H3N2 [5] | microneutralization IC50, virus A/Brisbane/10/2007 H3N2 [6] |
| --- | --- | --- | --- | --- | --- | --- |
| B1 | 50 µg/mL | 3.13 µg/mL | binds | binds | 6.25 µg/mL | 0.1 µg/mL |
| B2 | 50 µg/mL | < 0.05 µg/mL | binds | binds | 0.78 µg/mL | 0.1 µg/mL |

Source: paper PMC10433997, “Highly Cross-Reactive and Protective Influenza A Virus H3N2 Hemagglutinin- and Neuraminidase-Specific Human Monoclonal Antibodies” (Microbiology Spectrum, 2023)
